Results on two substances are retold here after publication PMC2974046.

What all share (test): purified protein
For series [1], the system named is NC(=O)/C=C/C(=O)NC[C@H](N)C(=O)O. The format is biochemical, Pantoea agglomerans. Conditions: adenylation (A) domain, ATP, Mg2+, pH 7.5, room temperature.
For series [2] the test system is unchanged. Conditions: 5 mM L-valine, 10 mM ATP, 12 mM MgCl2, HEPES pH 8, room temperature.
Series [3] relates to NC(=O)[C@@H]1O[C@H]1C(=O)NC[C@H](N)C(=O)O. Particulars: 5 mM L-valine, 10 mM ATP, 12 mM MgCl2, HEPES pH 8, room temperature.

Usually Km stands for the substrate concentration at which the rate is half of its maximum. As a reminder, the kcat is the number of substrate molecules converted per active site and unit of time at saturation. With DdaD (Pantoea agglomerans), in series [1], the Km was found to be 420 ± 80 µM and the kcat is 1.07 ± 0.083 s⁻¹.
As usually defined, the kcat/Km is the turnover number divided by the Michaelis constant. As for DdaF (Pantoea agglomerans), in series [2], the Km was determined as 72 ± 34 µM, the kcat is 0.35 ± 0.05 s⁻¹ and the kcat/Km was 4830 M⁻¹ s⁻¹. Also, in series [3], the Km was found to be 53 ± 7 µM, the kcat came to 3.02 ± 0.117 s⁻¹ and the kcat/Km is 56700 M⁻¹ s⁻¹.
